Experimental data published in article PMC2814163 (2010).

T1: Glu-plasminogen (Homo sapiens, UniProt P00747)
T1 chain: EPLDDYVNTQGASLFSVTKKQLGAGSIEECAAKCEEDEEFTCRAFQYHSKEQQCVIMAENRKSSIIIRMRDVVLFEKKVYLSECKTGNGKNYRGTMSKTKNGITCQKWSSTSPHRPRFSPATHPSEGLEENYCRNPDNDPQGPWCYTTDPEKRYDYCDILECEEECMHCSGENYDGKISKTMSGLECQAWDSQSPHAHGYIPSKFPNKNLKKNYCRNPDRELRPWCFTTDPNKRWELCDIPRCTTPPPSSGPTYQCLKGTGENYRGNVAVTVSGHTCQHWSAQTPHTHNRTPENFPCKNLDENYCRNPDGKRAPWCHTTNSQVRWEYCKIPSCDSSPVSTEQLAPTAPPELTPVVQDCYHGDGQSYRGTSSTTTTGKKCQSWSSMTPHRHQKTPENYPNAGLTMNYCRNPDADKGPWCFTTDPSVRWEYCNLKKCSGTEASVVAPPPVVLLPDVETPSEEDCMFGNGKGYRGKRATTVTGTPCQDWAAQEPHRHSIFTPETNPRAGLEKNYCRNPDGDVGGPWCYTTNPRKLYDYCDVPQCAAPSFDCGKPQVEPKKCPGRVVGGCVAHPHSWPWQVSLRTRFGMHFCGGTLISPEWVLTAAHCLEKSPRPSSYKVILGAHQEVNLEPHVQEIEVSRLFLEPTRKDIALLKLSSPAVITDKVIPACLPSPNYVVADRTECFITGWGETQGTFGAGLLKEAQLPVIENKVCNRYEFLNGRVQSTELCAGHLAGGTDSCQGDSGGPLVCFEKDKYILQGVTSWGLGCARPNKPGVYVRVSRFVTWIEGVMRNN


Target: T1, Glu-plasminogen
Experiment: SPR

| Kd | Binder |
| --- | --- |
| 5 nM | CI-MPR Dom1-2 (protein) AAGTQGAEFPELCSYTWEAVDTKNNMLYKINICGNMGVAQCGPSSAVCMHDLKTDSFHSVGDSLLKTASRSLLEFNTTVNCKQQNHKIQSSITFLCGKTLGTPEFVTATDCVHYFEWRTTAACKKNIFKANKEVPCYAFDRELKKHDLNPLIKTSGAYLVDDSDPDTSLFINVCRDIEVLRASSPQVRVCPTGAAACLVRGDRAFDVGRPQEGLKLVSNDRLVLSYVKEGAGQPDFCDGHSPAVTITFVCPSERREGTIPKLTAKSNCRFEIEWVTEYACHR |
| 3 nM | CI-MPR Dom1-3 (protein) AAGTQGAEFPELCSYTWEAVDTKNNMLYKINICGNMGVAQCGPSSAVCMHDLKTDSFHSVGDSLLKTASRSLLEFNTTVNCKQQNHKIQSSITFLCGKTLGTPEFVTATDCVHYFEWRTTAACKKNIFKANKEVPCYAFDRELKKHDLNPLIKTSGAYLVDDSDPDTSLFINVCRDIEVLRASSPQVRVCPTGAAACLVRGDRAFDVGRPQEGLKLVSNDRLVLSYVKEGAGQPDFCDGHSPAVTITFVCPSERREGTIPKLTAKSNCRFEIEWVTEYACHRDYLESRSCSLSSAQHDVAVDLQPLSRVEASDSLFYTSEADEYTYYLSICGGSQAPICNKKDAAVCQVKKADSTQVKVAGRPQNLTLRYSDGDLTLIYFGGEECSSGFQRMSVINFECNQTAGNNGRGAPVFTGEVDCTYFFTWDTKYACVH |
